Measured values reported in US12269859B2, “Synthetic immune receptors and methods of use thereof” (Angeles Therapeutics, Inc., priority 2016, dated 2025).

Test system: target antigen-expressing cell line
Experiment: Jurkat NFAT-GFP assay, coculture with target cell lines expressing the respective target antigen (summary Table 10A)
Assay type: cell-based, human
Set-up: key: The signs +/−, +, 2+ etc. after the name of the cell lines indicate the relative degree of positivity on the Jurkat-NFAT-GFP assay as measured by the % GFP positive cells; +: relative degree of positivity on the Jurkat-NFAT-GFP assay as measured by the % GFP positive cells; 2+: relative degree of positivity on the Jurkat-NFAT-GFP assay as measured by the % GFP positive cells
Settings: relative % GFP positive cells; for NFAT-GFP ASSAY Positive Cell lines: RAJI: SIR-expressing Jurkat-NFAT-GFP cells cocultured with RAJI
How it was run: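 Readout is % GFP+ cells by FACS, graded +/− to 2+ relative to parental reporter cells. Jurkat-NFAT-GFP cells stably transduced with SIR constructs (puromycin-selected) were mixed with target-antigen-expressing cell lines at roughly 1:2 effector:target and cocultured ~4–18 h.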

B1: 010417-B04 (protein)
chain: MALPVTALLLPLALLLHAARPLEGKPIPNPLLGLDSTGSGEDLKNVFPPEVAVFEPSKAEIAHTQKATLVCLATGFYPDHVELSWWVNGKEVHSGVCTDPQPLKEQPALNDSRYCLSSRLRVSATFWQNPRNHFRCQVQFYGLSENDEWTQDRAKPVTQIVSAEAWGRADCGITSASYHQGVLSATILYEILLGKATLYAVLVSALVLMAMVKRKDSRGRAKRSGSGATNFSLLKQAGDVEENPGPTSTMALPVTALLLPLALLLHAARPDEIVLTQSPATLSLSPGERATLSCSASSSVSYMHWYQQKPGQAPRLLIYDTSKLASGIPARFSGSGSGTDFTLTISSLEPEDVAVYYCFQGSVYPFTFGQGTKLEIKRGGGGSGGGGSGGGGSQVQLQESGPGLVKPSQTLSLTCTVSGGSISTSGMGVGWIRQHPGKGLEWIGHIWWDDDKRYNPALKSRVTISVDTSKNQFSLKLSSVTAADTAVYYCARMELWSYYFDYWGQGTLVTVSSTREAAAKDDIVMTQSPDSLTVSLGERTTINCKSSQSVLDSSKNKNSLAWYQQKPGQPPKLLLSWASTRESGIPDRFSGSGSGTDFTLTIDSLQPEDSATYYCQQSAHFPITFGQGTRLEIKGGGGSGGGGSGGGGSQVQLVQSGAEVKKPGASVKVSCKASGYTFTNYGMNWVKQAPGQGLKWMGWINTYTGEPTYADDFKGRVTMTSDTSTSTAYLELHNLRSDDTAVYYCARWSWSDGYYVYFDYWGQGTTVTVSSTREQKLISEEDGSGIQNPDPAVYQLRDSKSSDKSVCLFTDFDSQTNVSQSKDSDVYITDKCVLDMRSMDFKSNSAVAWSNKSDFACANAFNNSIIPEDTFFPSSDVPCDVKLVEKSFETDTNLNFQNLSVIGFRILLLKVAGFNLLMTLRLWSSRAKRSGSGVKQTLNFDLLKLAGDVESNPGPSRGHMTEYKPTVRLATRDDVPRAVRTLAAAFADYPATRHTVDPDRHIERVTELQELFLTRVGLDIGKVWVADDGAAVAVWTTPESVEAGAVFAEIGPRMAELSGSRLAAQQQMEGLLAPHRPKEPAWFLATVGVSPDHQGKGLGSAVVLPGVEAAERAGVPAFLETSAPRNLPFYERLGFTVTADVEVPEGPRTWCMTRKPGA
NFAT-GFP ASSAY Positive Cell lines: HL60 (SIR-expressing Jurkat-NFAT-GFP cells cocultured with HL60): +/−
NFAT-GFP ASSAY Positive Cell lines: NALM6 (SIR-expressing Jurkat-NFAT-GFP cells cocultured with NALM6): +
NFAT-GFP ASSAY Positive Cell lines: RAJI: RAJI (+), NALM6

B2: 041216 C02 (protein)
chain: MALPVTALLLPLALLLHAARPDEIVLTQSPATLSLSPGERATLSCSASSSVSYMHWYQQKPGQAPRLLIYDTSKLASGIPARFSGSGSGTDFTLTISSLEPEDVAVYYCFQGSVYPFTFGQGTKLEIKRGGGGSGGGGSGGGGSQVQLQESGPGLVKPSQTLSLTCTVSGGSISTSGMGVGWIRQHPGKGLEWIGHIWWDDDKRYNPALKSRVTISVDTSKNQFSLKLSSVTAADTAVYYCARMELWSYYFDYWGQGTLVTVSSLEGKPIPNPLLGLDSTGSGEDLKNVFPPEVAVFEPSKAEIAHTQKATLVCLATGFYPDHVELSWWVNGKEVHSGVCTDPQPLKEQPALNDSRYCLSSRLRVSATFWQNPRNHFRCQVQFYGLSENDEWTQDRAKPVTQIVSAEAWGRADCGITSASYHQGVLSATILYEILLGKATLYAVLVSALVLMAMVKRKDSRGRAKRSGSGATNFSLLKQAGDVEENPGPTSMALPVTALLLPLALLLHAARPDIQMTQSPATIENTSLSASVGDRVTITCRASQGISSWLTWYQQKPEKAPKSLIYAASSLQSGVPSRFSGSGSGTDFTLTISSLQPEDFATYYCQQYDSYPITFGQGTRLEIKGGGGSGGGGSGGGGSQVQLQQWGAGLLKPSETLSLTCAVYGGSFSAYYWSWIRQPPGKGLEWIGDINHGGGTNYNPSLKSRVTISVDTSKNQFSLKLNSVTAADTAVYYCASLTAYWGQGSLVTVSSTREQKLISEEDGSGIQNPDPAVYQLRDSKSSDKSVCLFTDFDSQTNVSQSKDSDVYITDKCVLDMRSMDFKSNSAVAWSNKSDFACANAFNNSIIPEDTFFPSSDVPCDVKLVEKSFETDTNLNFQNLSVIGFRILLLKVAGFNLLMTLRLWSSRAKRSGSGVKQTLNFDLLKLAGDVESNPGPSRGHMTEYKPTVRLATRDDVPRAVRTLAAAFADYPATRHTVDPDRHIERVTELQELFLTRVGLDIGKVWVADDGAAVAVWTTPESVEAGAVFAEIGPRMAELSGSRLAAQQQMEGLLAPHRPKEPAWFLATVGVSPDHQGKGLGSAVVLPGVEAAERAGVPAFLETSAPRNLPFYERLGFTVTADVEVPEGPRTWCMTRKPGA
modifications: Synthetic polynucleotide encoding a SIR
NFAT-GFP ASSAY Positive Cell lines: L428 (SIR-expressing Jurkat-NFAT-GFP cells cocultured with L428): L428 (+/−)

B3: 030217-E05 (protein)
chain: MALPVTALLLPLALLLHAARPDEIVLTQSPATLSLSPGERATLSCSASSSVSYMHWYQQKPGQAPRLLIYDTSKLASGIPARFSGSGSGTDFTLTISSLEPEDVAVYYCFQGSVYPFTFGQGTKLEIKRGGGGSGGGGSGGGGSQVQLQESGPGLVKPSQTLSLTCTVSGGSISTSGMGVGWIRQHPGKGLEWIGHIWWDDDKRYNPALKSRVTISVDTSKNQFSLKLSSVTAADTAVYYCARMELWSYYFDYWGQGTLVTVSSLEGKPIPNPLLGLDSTGSGEDLKNVFPPEVAVFEPSKAEIAHTQKATLVCLATGFYPDHVELSWWVNGKEVHSGVCTDPQPLKEQPALNDSRYCLSSRLRVSATFWQNPRNHFRCQVQFYGLSENDEWTQDRAKPVTQIVSAEAWGRADCGITSASYHQGVLSATILYEILLGKATLYAVLVSALVLMAMVKRKDSRGRAKRSGSGATNFSLLKQAGDVEENPGPTSTMALPVTALLLPLALLLHAARPDEIVLTQSPGSLAVSPGERVTMSCKSSQSVFFSSSQKNYLAWYQQIPGQSPRLLIYWASTRESGVPDRFTGSGSGTDFTLTISSVQPEDLAIYYCHQYLSSRTFGQGTKLEIKRGGGGSGGGGSGGGGSQVQLQQPGAEVVKPGASVKMSCKASGYTFTSYYIHWIKQTPGQGLEWVGVIYPGNDDISYNQKFQGKATLTADKSSTTAYMQLSSLTSEDSAVYYCAREVRLRYFDVWGQVTTVTVSSTREQKLISEEDGSGIQNPDPAVYQLRDSKSSDKSVCLFTDFDSQTNVSQSKDSDVYITDKCVLDMRSMDFKSNSAVAWSNKSDFACANAFNNSIIPEDTFFPSSDVPCDVKLVEKSFETDTNLNFQNLSVIGFRILLLKVAGFNLLMTLRLWSSRAKRSGSGVKQTLNFDLLKLAGDVESNPGPSRGHMTEYKPTVRLATRDDVPRAVRTLAAAFADYPATRHTVDPDRHIERVTELQELFLTRVGLDIGKVWVADDGAAVAVWTTPESVEAGAVFAEIGPRMAELSGSRLAAQQQMEGLLAPHRPKEPAWFLATVGVSPDHQGKGLGSAVVLPGVEAAERAGVPAFLETSAPRNLPFYERLGFTVTADVEVPEGPRTWCMTRKPGA
NFAT-GFP ASSAY Positive Cell lines: RAJI: RAJI (+)

B4: 102616-D06 (protein)
chain: MALPVTALLLPLALLLHAARPDVQMIQTPDSLAVSLGQRATISCRASESVDNYGISFMHWYQQKPGQSPKLLIYRASNLESGIPARFSGSGSRTDFTLTINPVETDDVATYYCQQNNKDPPTFGGGTKLEIKLEGKPIPNPLLGLDSTGSGEDLKNVFPPEVAVFEPSKAEIAHTQKATLVCLATGFYPDHVELSWWVNGKEVHSGVCTDPQPLKEQPALNDSRYCLSSRLRVSATFWQNPRNHFRCQVQFYGLSENDEWTQDRAKPVTQIVSAEAWGRADCGITSASYHQGVLSATILYEILLGKATLYAVLVSALVLMAMVKRKDSRGRAKRSGSGATNFSLLKQAGDVEENPGPTSMDWIWRILFLVGAATGAHSFEGGGGSQVQLQQSGAELVKPGASVKISCKASGYAFSSYWMNWVKQRPGKGLEWIGQIYPGDGDTTYNGKFKGKATLTADKSSSTVYMQLNSLTSEDSAVYFCVRYYYGSSGYFDYWGQGTTLTVSSTREQKLISEEDGSGIQNPDPAVYQLRDSKSSDKSVCLFTDFDSQTNVSQSKDSDVYITDKCVLDMRSMDFKSNSAVAWSNKSDFACANAFNNSIIPEDTFFPSSDVPCDVKLVEKSFETDTNLNFQNLSVIGFRILLLKVAGFNLLMTLRLWSSRAKRSGSGVKQTLNFDLLKLAGDVESNPGPSRGHMTEYKPTVRLATRDDVPRAVRTLAAAFADYPATRHTVDPDRHIERVTELQELFLTRVGLDIGKVWVADDGAAVAVWTTPESVEAGAVFAEIGPRMAELSGSRLAAQQQMEGLLAPHRPKEPAWFLATVGVSPDHQGKGLGSAVVLPGVEAAERAGVPAFLETSAPRNLPFYERLGFTVTADVEVPEGPRTWCMTRKPGA
modifications: Synthetic Immune Receptor (SIR)
NFAT-GFP ASSAY Positive Cell lines: LAN5 (SIR-expressing Jurkat-NFAT-GFP cells cocultured with LAN5): LAN5 (+)
